Reference: patent publication US20230193255

Key:
[1] = biological target: TEV cleavage site ENLYFQS
[2] = biological target: Variant TEV cleavage site ENLFFQS
[3] = biological target: Variant TEV cleavage site ENVYFQS

B1: TEV protease S219V mutant (protein)
chain: ESLFKGPRDYNPISSTICHLTNESDGHTTSLYGIGFGPFIITNKHLFRRNNGTLLVQSLHGVFKVKNTTTLQQHLIDGRDMIIIRMPKDFPPFPQKLKFREPQREERICLVTTNFQTKSMSSMVSDTSCTFPSSDGIFWKHWIQTKDGQCGSPLVSTRDGFIVGIHSASNFTNTNNYFTSVPKNFMELLTNQEAQQWVSGWRLNADSVLWGGHKVFMVKPEEPFQPVKEATQLMN
B1 was tested, and the “efficiency of cleavage by TEV at the TCS” value [1] was “considered to be 100% efficient”, the “efficiency of cleavage by TEV at the TCS” value [2] was “found to exhibit 10% efficiency” and the “efficiency of cleavage by TEV at the TCS” value [3] was “found to exhibit 1% efficiency”.
